Patent US20220403392 (published 2022)

B1: RA 5'3' + 5'3' fiber (mixed)
DNA 1: GGTTGGTGTGGTTGGTGGTTGGTGTGGTTGGTTTTCCCTTTAGGGAATGACCCTGAAGTTCATCTGCACCACCGAGGGAAATCCCTTTTTGGTTGGTGTGGTTGGTGGTTGGTGTGGTTGG
DNA 2: GGTTGGTGTGGTTGGTGGTTGGTGTGGTTGGTTTTTCCCTAAAGGGATGACCCTGAAGTTCATCTGCACCACCGAAGGGATTTCCCTTTTGGTTGGTGTGGTTGGTGGTTGGTGTGGTTGG
DNA 3: CGGTGGTGCAGATGAACTTCAGGGTCA
B2: RA 5' + 5' fiber (mixed)
DNA 1: GGTTGGTGTGGTTGGTGGTTGGTGTGGTTGGTTTTCCCTTTAGGGAATGACCCTGAAGTTCATCTGCACCACCGAGGGAAATCCCTT
DNA 2: GGTTGGTGTGGTTGGTGGTTGGTGTGGTTGGTTTTTCCCTAAAGGGATGACCCTGAAGTTCATCTGCACCACCGAAGGGATTTCCCT
DNA 3: CGGTGGTGCAGATGAACTTCAGGGTCA
B3: RA 5' + 3' fiber (mixed)
DNA 1: GGTTGGTGTGGTTGGTGGTTGGTGTGGTTGGTTTTCCCTTTAGGGAATGACCCTGAAGTTCATCTGCACCACCGAGGGAAATCCCTT
DNA 2: TTCCCTAAAGGGATGACCCTGAAGTTCATCTGCACCACCGAAGGGATTTCCCTTTTGGTTGGTGTGGTTGGTGGTTGGTGTGGTTGG
DNA 3: CGGTGGTGCAGATGAACTTCAGGGTCA
B4: NU 3' + 5' fiber (mixed)
DNA 1: TCCCTTTAGGGAATGACCCTGAAGTTCATCTGCACCACCGAGGGAAATCCCTTTTTCGCCTAGGTTGGGTAGGGTGGTGGCG
DNA 2: CGCCTAGGTTGGGTAGGGTGGTGGCGTTTTTCCCTAAAGGGATGACCCTGAAGTTCATCTGCACCACCGAAGGGATTTCCCT
DNA 3: CGGTGGTGCAGATGAACTTCAGGGTCA
B5: RA 3' + 3' fiber (mixed)
DNA 1: TCCCTTTAGGGAATGACCCTGAAGTTCATCTGCACCACCGAGGGAAATCCCTTTTTGGTTGGTGTGGTTGGTGGTTGGTGTGGTTGG
DNA 2: TTCCCTAAAGGGATGACCCTGAAGTTCATCTGCACCACCGAAGGGATTTCCCTTTTGGTTGGTGTGGTTGGTGGTTGGTGTGGTTGG
DNA 3: CGGTGGTGCAGATGAACTTCAGGGTCA

Target: thrombin (Homo sapiens, UniProt P00734;P00734 P00734:328-363,P00734:364-622)
Assay: inhibition; TT, plasma alone 16.3 s; about 0.5 uM in human plasma, 37 C

activity, > 60 s:
B1, B2, B3, B4, B5
